Test: protease stability score; higher = more stable; yeast display proteolysis, trypsin and chymotrypsin;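 further: relative to predicted unfolded state with 0 unfolded-like and 1 meaning tenfold more protease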

Sequence	protease stability score
SEDEESSKFALELMWHWEKTGDEKAISELADPHTLNHVNGVDLHGRELVIHFIHHMRIKRVHLKRIEIRMIGDYLDIRIHGRVDGEINGKDRDFHTDLVLIMRKVDGRWFVKSMSVIII	1.45
SEDEETARRIVKELLHDRLTGNEDRIRELADPDVRLIIGEFHMHGMDNFLRVLRFIYHHWRIHDTQMETHEIQGDKAYNHTIIDGEFDGKRHEWQIHILVLKVNGRWRLKTLELH	1.84
SEDEETIEDFVKWFVRALKTGDEDTINEMIDPHVLLHINGKDYHGRELVWRHFEELGIKHTELRHLHTYNGRVELESRLIVDGRVHKVHFHARKVNGRWTVTKVEIR	2.61
SEDEETIKRMVERWEKEFRTGDEKSYIENADPNYRLEVGDKTSIGRESVAKALDDLLRKRGVEIRDIKVHDVKIVGDFIHMDITFRGTQGDKEFDLKVILISKKVNGRWVPEHVHVH	0.789
SEDEETLSEAIRLLLESLQTGDWRTFDKLIDPHARLVIDGKELHGRDLITTLLTHWRVEHFKIRHIEVQGEKVRIEGEVRGDIDGRKKDTHVRLTAEKINGRWLTQIVIIH	1.98
SEDEETSEELARRFSKAMKTGDFDHLVQQLDPNVRIDINGKEMIGRERFEEDMRRLNLSNIHFITRDIKVEIQGEMLHVRIDGHTRINGKDVKTHDIWIFEKIDGRWRLKEWIVHEE	0.913
SEDEETVHEWFEVLRRDWATGNEENLMKLLDPHARLIIDGRELHGREHIIEFLRRHREHLGVTNIHVEFHIDNRKIFNGKVEVKGTLTIRINGKEEEREVILIIEKIDGRWYIKNLEIR	0.552
SEDEEVAERFLRLLIESLMTGDEDSFKSLLDPNDRLHIGEKHNHGRNLIVELLTRFGIELEHIELKSVEVINGRIHVNTHIRFIQGDKHIETEMRLNVDKIDGRWRLRSMHID	1.98
SEDEEVIKKHLKEFIDVLRTGNEEMSSYLADPNARVVDENEFSHGREDMTRIVSQARLHHIHVHDFELQGDKLLLDVHVDGVINGRRRRDKFHFVWLKYNGRWFLHSVHIR	0.652
SEDEEVLEWAIKIVILALKTGDEDLFRKLADPTMRTEINGVILHGWKEVLRSLKELRVHHVRIERVEVINGRVHVDSREDVEFNGVRYETITHLVIEKVDGRWLMHSLKVE	2.06
SEDEEVMKRAHELSARVMKTGDEETFRELADPDVRRNVNGVVRHGMENVIHLLRILFDEIRPRHFELTHMEVQGDKVRMEIRNDVRIGDKEVQLRVILIASKVNGRWHLQEVHVE	-0.496
SEDEEVVKEWIKVVLHSMVTGDEDDVRRLFDPHTRIEINGVLFIGRKWAETLARRVDHHHIETIEYHRSHVVDGVATVDGTFRGREEVDGRKIEHHFRIEFVIMKIDGRWVTQQMRIK	1.56
SEDEEWAKRMADNILEFLNTGDFREFSKELDPNTILRIDGREIHGMELVETHLEHARMRVDDWEIRSVRSVNGKLDVDMRLDGKLRFDGKEHYRKTESILIILKVDGKWRIHNIHVR	1.07
SEDEEWLHMAFELFAEAMRTGDEETLREYLDPRVRLVVGDKNLHGMEIVMRHFLEWRVRDVKIERIRVINGQLHIDGRLRVEFNGQEKNVDLTLILDKYNGRWRNRTIELR	1.69
SEDEEWSRLIVEEFIKVLDTGDERLTSEMLDPNARIVIGDKHIHGRESLVELIHRIKNIKFDFKHVNTQGDKVEVDGTIVFNGRTTTVLIRMKKVNGRWFVTEIHIE	1.9
SEDEEWVRRKVERWIRAFKTGNFEELRRNADPDTRIHINGVNFHGREDFEKFVTELMRRVKNARIDVHRLELQGEFIHSDETEDVNGVEHHVRFTYRKIDGRWSLHSIEFH	1.59
SEDEEWVSLLATLILRVLLTGDEDIWKKLADPNTIHDIGEKHFHGREEIARFWMELRIKSFHVRDMDVVGDFFHIRTHMDVSIDGKDIRTDVEIHILIINGRVKRQRFEFH	0.404
SEDEEYAKNVDKIMRESLMTGDEDSVERMFDPHAKVIVGDKEYHGREEMVRHIKWFLEHARIRDLRMRDVRIYGDKIEIDVEVDIDVNGKRIQRKEVIYVVKVNGKWIVEYIEIK	1.54
SEDEEYIRELMKLIAQITQTGDEELFRRLVDPHTRLVQGDKQYHGWHAFRVFLEEMRIKSVRVEVRRIEIQGEYVHVDTHWQLHVHYNGRDIDLHIDVRNIVHKVNGRWIIRHIHVE	0.986
SEDEEYLKRALELWDELVKTGDEHRSRRLFDPNARLEIGDKEYHGREEVTHMLRWLIKEIRVHSVTLKDFRSQGDKLIADTRQNREYNGKSDNVSLIMIIIKVDGRWLIESIKIE	1.41
SEDEEYMHNVARLLMESLLTGDEKTLKELFDPNTRVDINGKDIHGREDILTDWKRREHEWRVEDIKIEHEEVQGNKAVLHGKVTGDINGVKTHIHRDVHWEVINGKLKYVKFEHR	1.12
SEDEEYSHFASELFLNIFETGDWKTLLHYMDPNTRLVVNGRHHHGWKFMVEFLLHARIHTTRLKDIRTVNGKVDVDGRVDGHINGQKEERVFIINITKVNGVWILESVIIE	0.986
SEDEEYSRIIVKLWLEKMRTGDEDSLTKLMDPNYRLDINGKIFHGREEALLALREMVNRIDHFRDIKIHHVDIQGDKIRIDGRLEGEINGVHEIHKSSLVLVKYDGVWVIEEQKVL	1.91
SEDEEYVEHMIRLVIRSLWTGDEHLLHRLIDPHARAEVNGQEFHGREEVLDILMRIRDELGVDHIELKDFELQGDKLILYSQNNVGDKHFHIIYELTKINGRWRIHRVFIELR	1.7
SEDEEYVKELADLFKELWETGDEETFMKLVDPNVRSDVNGKRVHGREEIRRVWHEVIRTLGIKYSHLRDMRIIGNKVVLDIELRVGDKRIELKVILIIVNGRMHYVELRLNEI	1.89

Sequence	protease stability score
SEDEFDARLVYKLVLDLLLTGDPDTWRKLFDPNVKINIDGVDYHGMKEFERIVKEIRVIIHDSELHDVETQGDKIIYHGIIDGTYHVNGRTIRERRTFTIIAHKVDGRWILHSISYE	1.22
SEDEHAARWMTEDLERHTETGDEHRLTELIDPHAKLIFNGREYHGWEDYVKLFRELRVRRLEIKRVEVQGDKLFIDSTLRGNVNGREIDFEIHFVTHKINGRWKVHSVEII	1.69
SEDEHAVRELIELESHAWRTGDEDTLRRLIDPHTRVEQGDFIFHGREEWEKFVKRLLRHMRIEDIFIHHVRVQGDKVDTDSRLLVLFEGRREHVEVDLIILKIDGRWVISQIIIK	1.39
SEDEHDARHAIELFLRSMETGDEQSIWELADPHTLSDIDGVKLHGRDLWITFLRRYSETLGVDRVIVQVERVEVQGDKVRSHIRLHINGVTLNSRVHAEKINGVWLNRKVEFG	1.3
SEDEHDARLAIRLLLEALRTGDERIMEELLDPNVRFDINGKEFHGRKYVSEWLHRVDHIESRFELRDVHLFDGRIEVRGILRLHIDVNGKIDDQEKDIVLFVNKVDGRWIVHSWEIH	1.33
SEDEHDSELALRIFIQEVYTGDWKRLADNMDPNVRLEINGVENHGRELAIKNLRRRLEELGVKVSDLKIDDIKVQGDKVNLDGQLNLHVNGRTIIINTEVIFRKVDGRWIIESIRYE	1.7
SEDEHEALKVSEQFIRDLLTGDEDTFNRLADPNTRSEVGNKRQHGMDEVTHLWKELRIEDFTLRDQKIRIIGDKAEIDMDGEMVIIVNGKRVVQRVTLHLRVRKINGRWILHSIKLHIE	1.3
SEDEHELREFVNRYLHAMKTGDEDMLRDLLDPHVRFLIDGKNYHGREWVVAIFREFGIDRVEFELKDSEVQGDKVHIDGRVHINGQERSTEFRLEKYNGKWFLREEHYH	1.5
SEDEHEMRLALEKEIKDWHTGDEDSLRELADPDVRLTVNGKRKHGWEILDVLLKHLRVRSVEIKHLRLQGDKAEMDLRMDGEVGDKRINLITHVIMYKVDGKWIIEEIVVK	1.43
SEDEHFFRLVTRWIVRALLTGDEDSLQELLDPHVKFEINGRDFHGRESVYRAVLEIRRNDLRMKREHYHVQGDFVRSELTIEEELVIGDKIVTIESRLLLIILKINGRWYLEKMEVHFK	1.41
SEDEHFLERFLKLFLHAYETGDEDFIKHLLDPHTRIDIHIGDKTHHLHGRDEMSKLHRKLGAKVSRHRDSNMDIQGDKATSHIHGVEYVNGREIRIDIVLIMRKVDGRWVIESMIFIFH	1.25
SEDEHHIERMLKLFVKAVKTGDEDTLVKLLDPHARLHIGDKDHHGWEDIYKHEHELGLDRVEMDIHRIHLQGDKINVDGTLFIDGKHIEVVIYAKKVNGRWFVETREIR	1.22
SEDEHHLERALKEWIKVFETGDEDKEKKMADPHMRTDINGVELHGRELMITLIVELWEKLGVDHLEFNLSRFEIVNGQVFLHMEENLFVNGQRLRFKHEIIFNKVDGRWIVEEIRIH	1.26
SEDEHHSREFLRVTEEILQTGDEEKREKNADPHMRFVLVYNGRETIIHGRETVVHFIHEELQRLGWDRFRVETERMSVYNGVVHIDIRIFVGDKTIHWHEHAKKVNGRWVYKSVEIRRE	1.03
SEDEHIADMVIKELQHILNTGDEDRLRDLMDPNTRFDINGRHIHGREDVAHWLAREVLEMRVEFHLEHWDIVDGRIHIHSNVLIIVGNKIIRIKTEILIIKIDGRWYVEELKFR	1.36
SEDEHKLRTMLELWLEAHRTGDEDLLRKLMDPDVRIHVGDKDFHGWDHEIELFRKELKRLGIDKIDIEVKRIDLQGDKVILEVIVHINGKEIHMIIYANKFNGRWHVKQIEIR	1.35
SEDEHLADHFLRLQRKHIDTGDEDSFDRMIDPRAKFDIDGQEFHGREWSEWVKKRFDHVHIERIITRKFHVVDGRAEFHVDYDGRLNYNGVEVRVTLKQITIIEKIDGRWYVRSESIK	0.656
SEDEHLAERMVHLWNKILLTGNEEIMEKLFDPNTRVIVGDKEYVGREVFLHLVKEIRKRADHIEIRIQHLEVQGDKVHLHGILIFRQGDKSDEQRVHLHSEKVNGRWFLREFRFE	2.3
SEDEHLTRNLAKDTIRALETGDEDRLNELFDPDVRLEIGDFMSHGRKSFTDTLRRFKNLTLHIHDMRVIGDKVHIDGEVDWNGQRRKTEIIIVIVDGKLKQIHYNIH	0.874
SEDEHMFELARHILEETDRTGDWRELEKNVDPNARLRVDGQRQHGRDSVRLLIERADHIHHRRLETFTVVNGVIHFEMHVHVIINGVPYEVEVHMHALKVDGKWIIKKVEMD	0.479
SEDEHNAEIAIKIWLDTIRTGDWHKIENMADPNTRIDIGDKHFHGREEIVRLYIELVEKFPGMTFHVREVDVVGDKVDIHSHVVVGDKTFNLTIIITKVNGRWLLKKVRMESH	2.67
SEDEHQSKLALELLQESSYTGDWKTSQDLMDPHARFVIGDKYVHGMEEVSRMMEEIRIEEIHIRKIHTVGNKIEIKGEIRIRIGDKHTSTEVEWVASKVNGRWLLEELVVH	0.511
SEDEHRAEQLLRLWRETYTTGDERVMKELFDPNVRFDFNGREFIGREEAIRAFHEEVRHLGVDHVEIKEVEYRVINGQVHVHIESHFEVDGRRHRVHIESIVRKVNGKWRVEEVRIEIR	0.969
SEDEHRAREVVHIFNEAIDTGDFQSLMDMMDPNVRLIFENHHTIGREEALKVINRFDHVRNHHVRWRHVHHVNGRIIDHTEVDIVIHINGQIIRETTERDITIEKVNGRWLIHQIEIR	1.14
SEDEHRSHLLLKEFEHLMRTGNEEEIERNLDPHTRLEFNGREFHGREDAREVWRRFGFKHLDSLRFHHLEIQGDKIIIDSRTEMLFNGVHTITRVEFHALKIDGRWLSTELRIG	0.919
